The values that follow come from patent publication US20240174744A1 (SCIRHOM, published 2024).

Assay [1] deals with T1, dog iRhom2 full length wild type, C-terminally tagged with 3 consecutive copies of the T7 epitope (dog, UniProt Q00M95 1-827).
T1 construct: whole, on cells; also called Dog-iR2-FL-WT-T7
T1 sequence: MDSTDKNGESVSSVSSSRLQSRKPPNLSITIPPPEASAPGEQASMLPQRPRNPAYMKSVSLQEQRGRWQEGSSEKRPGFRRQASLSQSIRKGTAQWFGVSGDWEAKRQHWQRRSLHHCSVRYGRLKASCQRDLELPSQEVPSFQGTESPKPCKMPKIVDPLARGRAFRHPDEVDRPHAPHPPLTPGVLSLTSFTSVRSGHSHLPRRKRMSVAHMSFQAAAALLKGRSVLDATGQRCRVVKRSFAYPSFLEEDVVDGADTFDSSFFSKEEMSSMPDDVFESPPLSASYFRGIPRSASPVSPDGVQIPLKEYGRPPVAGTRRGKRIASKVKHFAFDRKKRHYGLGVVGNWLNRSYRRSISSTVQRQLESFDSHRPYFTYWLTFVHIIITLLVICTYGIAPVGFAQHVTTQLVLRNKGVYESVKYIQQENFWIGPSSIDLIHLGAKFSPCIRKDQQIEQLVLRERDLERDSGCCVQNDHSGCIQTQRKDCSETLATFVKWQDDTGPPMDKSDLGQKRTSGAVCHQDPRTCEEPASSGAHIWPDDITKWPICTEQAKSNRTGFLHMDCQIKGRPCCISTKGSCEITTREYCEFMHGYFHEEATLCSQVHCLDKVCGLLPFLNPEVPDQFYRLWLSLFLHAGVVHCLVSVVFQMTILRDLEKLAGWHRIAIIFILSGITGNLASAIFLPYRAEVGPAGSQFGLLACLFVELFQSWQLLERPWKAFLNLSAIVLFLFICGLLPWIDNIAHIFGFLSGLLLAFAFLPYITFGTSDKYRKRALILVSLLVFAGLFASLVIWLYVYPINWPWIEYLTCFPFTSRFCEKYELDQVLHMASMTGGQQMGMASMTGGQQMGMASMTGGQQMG
The assay can be described thus: FACS, MEF-DKO-Dog-iR2-FL-WT-T7 cells. As for the experimental part: In brief, immortalized MEF-DKO-EV control cells, MEF-DKO-rhesus-iR2-FL-WT-T7 cells, MEF-DKO-cyno-iR2-FL-WT-T7 cells, MEF-DKO-dog-iR2-FL-WT-T7 cells and MEF-DKO-rabbit-iR2-FL-WT-T7 cells, as well as their respective iRhom1 counterparts, were harvested with 10 mM EDTA in PBS, washed and resuspended in FACS buffer (PBS, 3% FBS, 0.05% sodium azide), and seeded in Nunc U-bottom 96-well plates (Thermo Fisher Scientific, USA) at approximately 3×10⁵ cells per well. To pellet cells and remove supernatants, the plates were centrifuged at 1,500 rpm and 4° C. for 3 minutes. For primary staining, cells were resuspended in 100 μl per well of either FACS buffer alone (controls), mouse monoclonal anti-T7 IgG (Merck Millipore, USA) at 3 μg/ml FACS buffer or the antibodies of the present disclosure also at 3 μg/ml FACS buffer and incubated on ice for 1 hour. Afterwards, plates were centrifuged at 1,500 rpm and 4° C. for 3 minutes and washed twice with 200 μl per well of FACS buffer. For secondary staining, cells were spun down and resuspended in 100 μl per well of PE-conjugated goat anti-mouse IgG F(ab′)2 detection fragment (Dianova, Germany) diluted 1:100 in FACS buffer. Protected from light, the cell suspensions were incubated on ice for 1 hour. Plates were then centrifuged at 1,500 rpm and 4° C. for 3 minutes and washed three times with 200 μl per well of FACS buffer. Finally, cells were resuspended in 150 μl per well of FACS buffer and analyzed using a BD Accuri™ C6 Plus flow cytometer (Becton Dickinson, Germany).
On the technique in general: In flow cytometry, cells or beads pass a laser one at a time.

The target in assay [2] is T2, human iRhom2 (inactive rhomboid protein 2, isoform 1), endogenously expressed on human cells (human, UniProt Q6PJF5 1-856).
T2 sequence: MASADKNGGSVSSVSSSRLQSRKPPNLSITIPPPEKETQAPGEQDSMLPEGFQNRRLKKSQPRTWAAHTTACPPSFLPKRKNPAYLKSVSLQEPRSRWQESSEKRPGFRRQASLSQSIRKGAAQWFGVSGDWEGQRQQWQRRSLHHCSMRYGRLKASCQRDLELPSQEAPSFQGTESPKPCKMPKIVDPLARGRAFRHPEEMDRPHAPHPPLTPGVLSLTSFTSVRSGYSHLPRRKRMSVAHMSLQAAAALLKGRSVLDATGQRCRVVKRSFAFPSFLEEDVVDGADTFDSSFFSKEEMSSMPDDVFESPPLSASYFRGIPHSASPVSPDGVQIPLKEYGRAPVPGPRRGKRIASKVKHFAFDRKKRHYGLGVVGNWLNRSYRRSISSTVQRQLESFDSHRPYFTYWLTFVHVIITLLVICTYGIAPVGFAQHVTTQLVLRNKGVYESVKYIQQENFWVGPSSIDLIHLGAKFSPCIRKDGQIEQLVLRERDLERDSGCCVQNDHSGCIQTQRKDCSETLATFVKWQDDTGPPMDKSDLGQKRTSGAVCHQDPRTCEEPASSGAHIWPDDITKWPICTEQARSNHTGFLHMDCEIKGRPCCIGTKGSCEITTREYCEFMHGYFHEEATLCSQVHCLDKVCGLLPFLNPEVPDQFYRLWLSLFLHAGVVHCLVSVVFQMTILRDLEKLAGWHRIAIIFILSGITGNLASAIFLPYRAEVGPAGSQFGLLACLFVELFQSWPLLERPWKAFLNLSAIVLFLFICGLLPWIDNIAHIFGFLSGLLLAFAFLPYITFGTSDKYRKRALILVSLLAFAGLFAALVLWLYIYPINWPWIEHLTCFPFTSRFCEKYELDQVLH
The assay can be described thus: cell-based or functional assay.

B1: antibody 48 (antibody, V domains shown)
VH: QVQLQQSGTELVRPGTSVKVSCKASGYAFTNYLIEWVKQRPGQGLEWIGVINPGSGFTKYNEKFKGKATLTADKSSSTVYMHLSSLTSEDSAVYFCARGLYRAMDYWGQGTSVTVSS
VL: DIQMTQSPASQSASLGESVTITCLASQTIATWLAWYQQKPGKSPQLLIYGATTLADGVPSRFSGGGSGTKFSFKISSLQAEDFVSYYCQQLYSTPYTFGGGTKLEIK
notes: Mouse IgG, kappa light chain; also called clone #48; purified antibody 48
For B1, in assay [1], the binding result is “binds”.

B2: antibody 47 (antibody, V domains shown)
VH: QVQLQQSGAELVRPGTSVKVSCKASGYAFTNYLIEWVKQRPGQGLEWIGVINPGSGFTNYNEKFKGKAILNADKSSSTAYMQLISLTSEDSAVYFCARDLKRAMDHWGQGTSVTVSS
VL: DIQMTQSPASQSASLGESVTITCLASQTIGTWLAWYQQKPGKSPQLLIHAATSLADGVPSRFSGSGSGTKFSFKISSLQAEDFVSYYCQQIYSSPYTFGGGTKLEIK
notes: Mouse IgG, kappa light chain; also called clone #47
With B2, the binding result in assay [1] was “binds”.

B3: antibody 50 (antibody, V domains shown)
VH: QVQLQQSGAELVRPGASVKVSCKASGYAFSNYLIEWVKQRPGQGLEWIGVINPGSGFTKYNEKFKGKATLTADKSSSTAYMQLSSLTSEDSAVYFCARGLYRAMDYWGQGTSVTVSS
VL: DIQMTQSPASQSASLGESVTITCLASQTIGTWLAWYQQKPGKSPQLLIYAAASLADGVPSRFSGGGSGTKFSFKISSLQAEDFVNYYCQQIYSTPYTFGGGTKLEIK
notes: Mouse IgG, kappa light chain; also called clone #50; purified antibody 50
B3: in assay [1], the binding result is “binds”.

B4: antibody 16 (antibody, V domains shown)
VH: QVTLKESGPGILQPSQTLSLTCSFSGFSLSTFALGVGWIRQPSGRGLEWLAHIWWDDDKYYNPALKSRLTISKDTSKNHVFLKIANVDTADTATYYCARITTYYYGMDYWGQGTSVTVSS
VL: DIVLSQSPATLSVTPGDSVSLFCRASQSIGNHLHWYQQESHASPRLLIKYASQSISGIPSRFSGSGSGTDFTLSINSVETEDFGMYFCQQSYNWPLTFGAGTKLELK
notes: Mouse IgG, kappa light chain; also called clone #16; m16
With B4, in assay [2], the “inhibition of LPS-induced release of TNFα from PBMCs of healthy donors, 1 µg/ml” value was 81.3 % inhibition; the “inhibition of LPS-induced release of TNFα from THP-1 cells, 10 µg/ml, antibody purified from hybridoma” value (from here on “inhibition … from hybridoma”) was found to be 65.4 % inhibition; the “inhibition of LPS-induced release of TNFα from THP-1 cells, recombinant antibody” value (from here on “inhibition … recombinant antibody”) stood at 70.7 % inhibition; the “inhibition of LPS-induced release of TNFα from human macrophages of healthy donors” value amounted to 85.8 % inhibition. For the same molecule, in assay [2], the “inhibition of PMA-induced release of HB-EGF from PBMCs of healthy donors, 1 µg/ml” value worked out at 71.6 % inhibition; the “inhibition of PMA-induced release of HB-EGF from THP-1 cells, 3 µg/ml” value is 71.9 % inhibition; the “inhibition of PMA-induced release of HB-EGF from U-937 cells” value was determined as 99.6 % inhibition; the “inhibition of PMA-induced release of IL-6R from PBMCs of healthy donors, 1 µg/ml” value came to 84.3 % inhibition. Also, in assay [2], the “inhibition of PMA-induced release of IL-6R from THP-1 cells, 1 µg/ml” value (“inhibition … from THP-1 cells, 1 µg/ml” below) was 72.5 % inhibition; the “inhibition of PMA-induced release of IL-6R from U-937 cells, 1 µg/ml” value (shortened to “inhibition … of IL-6R from U-937 cells, 1 µg/ml”) came out at 77.7 % inhibition; the “inhibition of PMA-induced release of IL-6R from U-937 cells, 3 µg/ml” value was 77.4 % inhibition; the “inhibition of PMA-induced release of TGFα from PC3 cells, 1 µg/ml” value was found to be 13.9 % inhibition. In assay [2], the “inhibition of PMA-induced release of TNFα from U-937 cells, 1 µg/ml” value (“inhibition … of TNFα from U-937 cells, 1 µg/ml” for short) is 91.6 % inhibition and the “inhibition of PMA-induced release of TNFα from U-937 cells, 3 µg/ml” value is 91.9 % inhibition.

B5: antibody 3 (antibody, V domains shown)
VH: QVTLKESGPGILQPSQTLSLTCSFSGFSLTTFAMGIGWVRQPSGKGLEWLAHIWWDGEKYNNPVLKSRLTISKDTSKNQVFLRIANVDTPDTATYYCARISSIYYIIDNWGQGTSVTVSS
VL: DIVLTQSPATLSVTPGHSVSLSCRASQSISNNLHWYQKKSHESPRLLIKYVSQSISGIPSRFSGSGSGTDFTLSINSVETEDFGMYFCQQSYNWPLTFGAGTKLELK
notes: Mouse IgG, kappa light chain; also called clone #3; purified antibody 3
With B5, in assay [2], the “inhibition … from hybridoma” value amounted to 71.2 % inhibition; the “inhibition … recombinant antibody” value came out at 59.9 % inhibition; the “inhibition … from THP-1 cells, 1 µg/ml” value was found to be 46.7 % inhibition; the “inhibition … of IL-6R from U-937 cells, 1 µg/ml” value is 61.8 % inhibition. Moreover, the “inhibition … of TNFα from U-937 cells, 1 µg/ml” value in assay [2] was determined as 65.9 % inhibition.

B6: antibody 43 (antibody, V domains shown)
VH: QVALKESGPGILQPSQTLSLTCSFSGFSLSTFGMGVGWIRQSSGKGLEWLANIWWDDDKYYNPALKSRLTISKDASKNQAFLKIANVDTADTATYYCARIGNYGSNYWYFDVWGTGTTVTVSS
VL: QIVLTQSPAIMSASPGERVTMTCSANSRISYMYWYQQKPGSSPRLLIYDTSNLASGVPVRFSGSGSGTSYSLTISRMEAEDAATYNCQQWSSYPLTFGAGTKLELK
notes: Mouse IgG, kappa light chain; also called clone #43
Consider B6, for which, in assay [2], the “inhibition … from hybridoma” value is 74.8 % inhibition; the “inhibition … recombinant antibody” value was found to be 78.5 % inhibition; the “inhibition … from THP-1 cells, 1 µg/ml” value is 72.9 % inhibition; the “inhibition … of IL-6R from U-937 cells, 1 µg/ml” value worked out at 76.1 % inhibition. In addition, in assay [2], the “inhibition of PMA-induced release of TGFα from PC3 cells, 1 µg/ml” value turned out to be 12.4 % inhibition and the “inhibition … of TNFα from U-937 cells, 1 µg/ml” value was found to be 78.3 % inhibition. For the same molecule, the binding result in assay [1] is “binds”.

B7: antibody 5 (antibody, V domains shown)
VH: QVTLKESGPGILQPSQTLSLTCSFSGFSLSTFGMGVGWIRQPSGKGLEWLAHIWWDDEKYYNSALKSRLTISKATSKNQAFLKIANVDTADTATYYCARISNYGSNYWYFNVWGTGTTVTVSS
VL: QVVLTQSPALMSASPGEKVTMTCSAGSSVSCMYWYQQKPGSSPRVLIYDTSNLASGVPARFTGSGSGTSYSLTISRMEAEDAASYYCQQWNSYPLTFGAGTKLELK
notes: Mouse IgG, kappa light chain; also called clone #5; purified antibody 5
Regarding B7, in assay [2], the “inhibition … from hybridoma” value turned out to be 69 % inhibition; the “inhibition … recombinant antibody” value is 70.5 % inhibition; the “inhibition … from THP-1 cells, 1 µg/ml” value was determined as 64.1 % inhibition; the “inhibition … of IL-6R from U-937 cells, 1 µg/ml” value was found to be 67 % inhibition. For the same molecule, the “inhibition … of TNFα from U-937 cells, 1 µg/ml” value in assay [2] came to 63.6 % inhibition.

B8: antibody 51 (antibody, V domains shown)
VH: QVQLQQSGAELVKPGASVKISCKASGYTFSNYWMNWVKQRPGKGLEWIGQIYPGDGDTKYNGKFKNKATLTADKSSSTAYMQFSSLTSEDSAVYFCARGDLVFVYWGLGTLVTVSA
VL: DVQITQSPSYLAVSPGETITINCRASKNIRKYLAWYQEKPGKTNKLLIYSGSTSQSGVPSRFSGSGSGTDFTLTISSLEPEDFAMYYCQQHNEYPYTFGGGTKLEIK
notes: Mouse IgG, kappa light chain; also called clone #51
Regarding B8, in assay [1], the binding result is given as “binds”.
